The data set can be described thus: yeast display, Sf9 membrane polyspecificity reagent, FACS + sequencing; frameworks hold sequencing errors. The method in brief:
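Sorting gates, low and high (top ~1%), were placed on anti-HA fluorescence to track expression and on streptavidin fluorescence to track reagent binding. A clone's polyreactivity label is taken from the gate it came out of. The reagent was 10% biotinylated, detergent-solubilized Sf9 membrane, applied for 1 hour at 4 °C to galactose-induced yeast display cells.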
With “QDQLVESGGGLVQAGGSLRLICAASGYTFGHYVMGWYRQAPGKERELVAAITLSGGGTYYADSVKGRFTISRDNAKNTVYLQMNCLKPEDTAVYYCAAVGGEHAKKTYSRYKVDYWGQGTQVTVSS”, the “polyreactivity (PSR sort gate)” value is listed as “low polyreactivity”.

For the sequence “QDQLVESGGGLVQAGGSLRLRCAASGFIFRYYAMGWYRQAPGKERELVAAIDYSGGSTNYADSVKRRFTISRDNAKNTVYLQMNSLKPEDTAVYYCNAEYTWHRGYDYWGQGTQVTVSS”, the “polyreactivity (PSR sort gate)” value is listed as “low polyreactivity”. As for “QDQLVESGGGLVQAGGSLRLRCAASGRTFEGNAMGWYRQAAGTEGELVAAMTSGGPTNSADSVKGRFTISRDNAKNTVYFQMNSLKPEDTAVYYCADETRDRSTYFPGQAYDYWGQGTQVTVSS”, the “polyreactivity (PSR sort gate)” value is listed as “low polyreactivity”. Take “QDQLVESGGGLVQAGGSLRLSCAASARIFPHYPMGWYRQAPGKERELVATITSGGRTNYADSVKGRFTISRDNAKNTVYLQMNSLKPEDTAVYYCAVDTWGSSWYDLFRETSDYWGHGTQVTVSS”: the “polyreactivity (PSR sort gate)” value is “low polyreactivity”. With “QDQLVESGGGLVQAGGSLRLSCAASGFIFARYVMGWYRPAPGKERELVASITGSGVSTYYADSVKGRFTISRDNAKNTVYLQMNSLKPEDTAVYYCATRVYRRYYLNSWYNYWGQGTQVTVSS”, the “polyreactivity (PSR sort gate)” value was “high polyreactivity”.

With “QDQLVESGGGLVQAGGSLRLSCAASGFIFDDNAMGGYRQAPGKERELVAAITSGGGSTYYADSVKGRFTISRDNAKYTVYLQMNSLKPEDTAVYYCNAVPSQHDEFDYWGQGTQVTVSS”, the “polyreactivity (PSR sort gate)” value was “low polyreactivity”. Take “QDQLVESGGGLVQAGGSLRLSCAASGFIFDDNAMGWSRQAPGKERELVAAITSGGGSTYYAVSVKGRFTISRDNAKNTVYLQMNSLKPEDTAVYYCNAVPSQHDEFDYWGQGTQVTVSS”: the “polyreactivity (PSR sort gate)” value was “low polyreactivity”. To “QDQLVESGGGLVQAGGSLRLSCAASGFIFGNYALGWYRQAPGKERELVATITWRGGSTYYADSVKGRFTISRDNAKNTVYLQMNSLKPEDTAVYYCARPYASYSSFYYYGYWGQGTQVTVSS” belongs “high polyreactivity”; to “QDQLVESGGGLVQAGGSLRLSCAASGFIFGRYTMGWYRQAPWKERELVAAISGSDVSTYYADSVKGRFTISRDNAKNTVYIQMNSLKPEDTAVYYCAADAPWAYYEYDYWGQGTQVTVSS”, “low polyreactivity”. To “QDQLVESGGGLVQAGGSLRLSCAASGFIFYFYAMVWYRQAPGKERELVAAISSGGSTNYADSVKGRFTISRDNAKNTVYLQMNSLKPEDTAVYYCNKGGYYKYFLNDYNYWGQGTQVTVSS” belongs “low polyreactivity”.

As for “QDQLVESGGGLVQAGGSLRLSCAASGFILGLNAMGWYRQAPGKEREFVADISWSGDSTYYADSVKGRFTISRDNAKNTVYLQMNSLKPEDTAFYYCAAVPYYNWGYYYWGQGTQVTVSS”, the “polyreactivity (PSR sort gate)” value is listed as “low polyreactivity”. Under “QDQLVESGGGLVQAGGSLRLSCAASGFIYFQYAMGWYRQAPGKERELVAAISGSGVTTYYADSVKGRFTISRDNAKYTVYLQMNSLKPEDTAVYYCNAALRWKYDWGQGTQVTVSS” stands “low polyreactivity”; under “QDQLVESGGGLVQAGGSLRLSCAASGFTFGTYAMGWYRQAPGKERELVAAISARGGSTYYADSVKGRFTISRDNAKNTVYLQMNSLKPEDTAVYYCAAYYGRHVTPPTGYDYWGQGTQVTVSS”, “high polyreactivity”; under “QDQLVESGGGLVQAGGSLRLSCAASGFTFGWYAMGWYRQAPGKERELVAAITSRGGSTYYPDSVKGRFTISRDNAKNTVYLQMNSLKPEDTAVYYCAALYGWSGYDYWGQGTQVTVSS”, “high polyreactivity”.

Turning to “QDQLVESGGGLVQAGGSLRLSCAASGFTFHNNVMGWYRQAPGKERELVATISKSGGSTYYADSVKGRITISRDNAKNTVYLQMNSLKPEDTAVYYCARRYRDYGRYGYWGQGTQVTVSS”, the “polyreactivity (PSR sort gate)” value is “high polyreactivity”. To “QDQLVESGGGLVQAGGSLRLSCAASGFTFRAYTMGWYRQAPGKERELVAAITYSGGRTYYADSVKGRFTISRDNAKKTVNLQMNSLNPEDTAVYYCAKRGWALSEYDYWGQGTQVTVSS” belongs “high polyreactivity”; to “QDQLVESGGGLVQAGGSLRLSCAASGFTFTWNAMGWYRQAPGKERELVAGITRGGSTNYADSVKGRFTISRDNAKNTVYLQMNSLKPEDTAVYYCNVSFYFHHAGYDYWGQGTQVTVSS”, “low polyreactivity”; to “QDQLVESGGGLVQAGGSLRLSCAASGFTFYSYAMGWYRQAPGKEREFVATITSSGGSTYYADSVKGRFTISRDTAKNTVYLQINSLNTEDTAVYYCAKDRYLYYRRRGQYDYWGQGTQVTVSS”, “high polyreactivity”. To “QDQLVESGGGLVQAGGSLRLSCAASGFTFYTNVMGWYRQAPGKERELVAAINSGGSTNYADSVKGRFTISRDNAKNTVYLQMNSMKPEDTAVYYCNKSGTEIGYDYWGQGTQVTVLS” belongs “low polyreactivity”. Under “QDQLVESGGGLVQAGGSLRLSCAASGFTLSINAMGWYRQAPGKERELVAGISWSGGSTYYADSVKGRFTISRDNAKNTVYLQMNSLKPEDTAVYYCNADIYPDRYGSTNYDFNYWGQGTQVTVSS” stands “low polyreactivity”; under “QDQLVESGGGLVQAGGSLRLSCAASGHIFPYNAMGWYRQAPGKEREIVAASSFRGGSTYYADSVKGRFTISRDNAKNTVYLQMNSLKPEDTAVDYCAKRSYPWGQGTQVTVSS”, “low polyreactivity”; under “QDQLVESGGGLVQAGGSLRLSCAASGIIFDVYAMGWYRPAPWNERELVAGITIGDITYYADSVKGRFTISRDNAKNTVYLQMNSLKPEDTAVYYCAADSYYYQTAYDYWGQGTQVTVSS”, “low polyreactivity”. In the case of “QDQLVESGGGLVQAGGSLRLSCAASGIIFGAYAMGWYRQAPGKERELVAAISQSGGSTYYADSVKGRFTISRDNAKITVYLQMNSLKPEDTAVYYCNVDPDVILVTSYDYWGQGTQVTVSS”, the “polyreactivity (PSR sort gate)” value was “low polyreactivity”. Under “QDQLVESGGGLVQAGGSLRLSCAASGIIFKYYAMGWYRQAPGKERELVAAITSGGSTNYADSVKGRFTISRDNAKNTVYLQMNSLKPEDTAVYYCAKRFYYRNRFDYWGHGTQVTVSS” stands “low polyreactivity”. Under “QDQLVESGGGLVQAGGSLRLSCAASGIIYLTYAMGRYRQEPGKERELVATITSGGRTIYADSVKGRFTISLDNAKNTVYLQMNRLKPVDTAVYYCNALRYYHYDYWGQGTQVTVSS” stands “high polyreactivity”; under “QDQLVESGGGLVQAGGSLRLSCAASGINLSAYAMGWYRQAPGKERELVARISRSGGRTYYADSVKGRFTISRDNAKNTVYLQRNSLKQDDTAVYYCAADYTYGFGLYFGFGYWGQGTKVTVSS”, “high polyreactivity”; under “QDQLVESGGGLVQAGGSLRLSCAASGITFYRYAMGWYRQAPGKERDLVAAITTSDTSTYYADSVKGRFTISRDNAKNTVYLQMNSLKPEDTAVYYCATDVVNIAPAEYDYWGQGTQVTVSS”, “low polyreactivity”. Under “QDQLVESGGGLVQAGGSLRLSCAASGITSSMNSMGWYRQAPGKERELVAAISWRGGSTYYADSVKGRFTISRDNAKNTVYLQLNSLKPEDTAVYYCAVRGKFDYWGQGTQVTVSS” stands “high polyreactivity”; under “QDQLVESGGGLVQAGGSLRLSCAASGLIFDSYAMGWYRQAPGKERELVAAITYTGGSTYYADSVKGRFTISRDNAKNTVYLQMNSLKPEDTAVYYCAADSPGPWRYDYWGQGTQVTVSS”, “high polyreactivity”; under “QDQLVESGGGLVQAGGSLRLSCAASGLIFGYYAMGWYRQAPGKERELVAVISYSGGSTYYADSVKGRYTISRDNAKNTVYFQMNSMKPEDTAVYYCNTYRAYYRHTKEYGYWGQGTLVTVSS”, “high polyreactivity”. As to “QDQLVESGGGLVQAGGSLRLSCAASGLIFYGYVMGWYRQAPGKERELVAGISRNSGSTYYADSVKGRFTISRDNAKNTVYLQMNSLKPEDTAVYYCAALKFEAWAGEDYWGQGTQVTVSS”, the “polyreactivity (PSR sort gate)” value is on record as “low polyreactivity”. To “QDQLVESGGGLVQAGGSLRLSCAASGLTFAIYAMGCYRPAPGKERELVAGITWNTGRTYYADSVKGRFTISRDNAKNTVYLQMNSLNPEDTAVYYFAGRFVSRSVRGEATKYDYWGQGTQVTVSS” belongs “high polyreactivity”; to “QDQLVESGGGLVQAGGSLRLSCAASGNNFFPYAMGWYRQAPGTEREFVAAINWSGGSTYYADSVKGRFTISRDNAKNTVYLQMNSLKPEDTAVYYCAASSGKWGHGYWGQGTQVTVSS”, “high polyreactivity”; to “QDQLVESGGGLVQAGGSLRLSCAASGNTFNRYAKGWYRQAPGQERELVAAITSDGSTNYADSVKGRFTISRDNAKNTVYIQKNSMKPEDTAVYYCAAEHSGYPVAFYITGYGYDYCGQGTQVTVSS”, “low polyreactivity”. As to “QDQLVESGGGLVQAGGSLRLSCAASGNTFYVNVMGWYRQPPGKVREFVAAISTRGVSTSYADSVKGRFTISRDIAMNTVYLQMNSLKPEDTAVYYCAASFRRPEPKGTTYGYWGQGTQVTVSS”, the “polyreactivity (PSR sort gate)” value is “high polyreactivity”. As to “QDQLVESGGGLVQAGGSLRLSCAASGNTYLNAMGWYRQAPAKEREMVAAISKGGADTYYADSVKGRFTISRDNAKYTVYLQMNSLKPEDTAVYYCNADYWFRFGSSVDQVTEDYWGQGTQVTVSS”, the “polyreactivity (PSR sort gate)” value is given as “low polyreactivity”. To “QDQLVESGGGLVQAGGSLRLSCAASGPIFLVKTMGCYIQAPGKERELVADITWRGGDTYYADSVKGRFTISRDNAKNTDYLQMNSLKPEDTAVYYCAARGLGYGYERYRLGYWGQGTQVTVSS” belongs “high polyreactivity”; to “QDQLVESGGGLVQAGGSLRLSCAASGRIFAPNAMGWYRQAPGKERELVAAITYSGTSTYADSVKGRFTISRDNAKNTVYLQMNSLKPEDTAVYYCAAEGSGVYYHSYDYWGQGTQVTVSS”, “low polyreactivity”; to “QDQLVESGGGLVQAGGSLRLSCAASGRIFKSYAMGWYRQAHGKERELVAAISSSGGSTYYADSVKGRFTISRDNAKNTVYLQMNSLKPEDTAVYYCAAYGHYSWSYDYWGQGTQVTVSS”, “high polyreactivity”. Turning to “QDQLVESGGGLVQAGGSLRLSCAASGRIFKYKAMGRYRQAPGKERELVAAIRRSGGSTYYADSVKGRFTISRDYAKNTVYLQMNSLKPEDTAVYFCNRLYGPGFKSVYGYDYWGQGTQVTVSS”, the “polyreactivity (PSR sort gate)” value is on record as “high polyreactivity”. For the sequence “QDQLVESGGGLVQAGGSLRLSCAASGRIFPGNAMGWYIHEPGKERELVADITSGGSTNYADSVNGRFTISRDNAKNSVYLQMNSLKPEDTAVYYCAVGQIYQTSDHRLQYVYWGQGTQVTVSS”, the “polyreactivity (PSR sort gate)” value is on record as “low polyreactivity”.

For the origin of these results see the nanobody polyreactivity screen of Harvey et al. (2022).
